One molecule from PMC5464773, “Epistatic mutations in PUMA BH3 drive an alternate binding mode to potently and selectively inhibit anti-apoptotic Bfl-1” (eLife, 2017) can be followed below.

The assay deals with Myc-tagged Bfl-1 (human, UniProt Q16548 1-175). In words: fluorescence polarisation; competition: 0–10 μM unlabeled peptide titrated into 50 nM c-myc-tagged receptor plus 25 nM fluoresceinated BIM; 25 mM Tris pH 7.8, 50 mM NaCl, 1 mM EDTA, 5% DMSO, 0.001% v/v Triton-X; 23°C, 3 hr; fit to a complete competitive binding model. The settings on record: both partners purified. In general terms: Fluorescence polarisation rises when a labelled molecule tumbles more slowly, as on binding a larger partner.
Myc-tagged Bfl-1, sequence (Q16548 whole entry): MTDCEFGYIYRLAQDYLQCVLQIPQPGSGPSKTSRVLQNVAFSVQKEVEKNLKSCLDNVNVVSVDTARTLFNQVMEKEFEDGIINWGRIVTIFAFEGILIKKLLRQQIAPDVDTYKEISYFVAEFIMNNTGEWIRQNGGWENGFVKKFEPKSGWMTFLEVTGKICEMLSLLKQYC

B1: BIM-FS2 (peptide)
chain: RPVIWIAQGLRRAGDEVNAYVAR
modifications: probably N-terminal acetyl and C-terminal amide; 23-mer 1f-4g assumed by analogy with PUMA/FS2; printed E2bV read as E2aV (2b is Ile in BIM, 2a is Glu and FS2 has Val at 2a); A2eA is no change / Myc …
B1: the Ki (commonly the equilibrium dissociation constant of an inhibitor or competing ligand from its target) amounted to 720 nM.
